Test results published in patent US20170240629A1 (Hoffmann-La Roche, published 2017).
Substitutions are numbered along the chain they refer to. Like-named read-outs stand apart in the source and are kept apart here.

Legend:
[1] = target: T1, human PDGF-BB (human, UniProt P01127 82-190); assay: SPR; Fab
T1 construct: also called huPDGF-BB

[2] = target: T1, human PDGF-BB; assay: SPR; apparent KD* of the Fab
[3] = target: T1, human PDGF-BB; assay: SPR (BIAcore T200); PDGF-BB coupled on CM3 chip, Fab injected
[4] = target: T1, human PDGF-BB; assay: cell-based or functional assay
[5] = target: T1, human PDGF-BB; assay: cell-based or functional assay; remark: listed apart in the source
[6] = target: T1, human PDGF-BB; assay: SPR (BIAcore T200); PDGF-BB coupled on CM3 chip, antibody injected (Example 52); parameters: t½: unit not given here
[7] = target: T2, ANG2 (UniProt O15123 68-496, limits assumed); assay: cell-based or functional assay
T2 sequence (looked up): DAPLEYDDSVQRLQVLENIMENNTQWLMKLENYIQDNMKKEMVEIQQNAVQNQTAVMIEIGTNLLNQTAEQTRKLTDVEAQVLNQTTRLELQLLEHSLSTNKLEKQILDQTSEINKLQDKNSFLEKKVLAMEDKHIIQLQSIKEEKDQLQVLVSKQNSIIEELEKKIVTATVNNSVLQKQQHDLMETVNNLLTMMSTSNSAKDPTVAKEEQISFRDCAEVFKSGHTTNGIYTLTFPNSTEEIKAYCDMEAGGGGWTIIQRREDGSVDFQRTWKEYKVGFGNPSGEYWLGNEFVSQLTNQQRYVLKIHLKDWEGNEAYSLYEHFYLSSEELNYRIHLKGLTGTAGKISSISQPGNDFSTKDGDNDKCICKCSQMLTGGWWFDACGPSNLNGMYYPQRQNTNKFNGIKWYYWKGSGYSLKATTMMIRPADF

[8] = target: T3, human ANG2-RBD-mouse Fc-region fusion (human, UniProt O15123 275-496, limits assumed); assay: SPR (BIAcore T200); ANG2-RBD-mouse Fc captured, antibody injected (Example 52)
T3 construct: domain: RBD; also called human ANG2-RBD-murine Fc-region fusion; not shown: mouse Fc-region
T3 sequence (looked up): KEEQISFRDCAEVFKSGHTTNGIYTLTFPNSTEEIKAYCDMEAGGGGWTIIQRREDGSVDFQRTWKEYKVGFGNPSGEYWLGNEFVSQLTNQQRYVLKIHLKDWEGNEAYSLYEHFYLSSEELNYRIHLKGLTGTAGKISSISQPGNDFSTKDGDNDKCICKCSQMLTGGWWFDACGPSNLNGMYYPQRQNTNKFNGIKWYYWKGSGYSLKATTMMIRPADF

[9] = target: T4, human IL-1beta (human, UniProt P01584 117-269); assay: cell-based or functional assay
[10] = target: T4, human IL-1beta; assay: cell-based or functional assay; remark: listed apart in the source
[11] = target: T4, human IL-1beta; assay: cell-based or functional assay; remark: listed apart in the source
[12] = target: T4, human IL-1beta; assay: cell-based or functional assay; remark: listed apart in the source
[13] = target: T4, human IL-1beta; assay: cell-based or functional assay; remark: listed apart in the source
[14] = target: T4, human IL-1beta; assay: SPR (BIAcore); antibody captured by anti-Fc, IL-1beta injected
Procedure: (§1) All experiments were performed at 25° C. using HBS-P (10 mM His, 140 mM NaCl, 0.05% Tween 20 pH 7.4) as running and dilution buffer. Anti-human or anti-mouse Fc antibodies were immobilized on a Series S CM5 Sensor Chip (GE Healthcare) using standard amine coupling chemistry. […] The dissociation phase was monitored for 600 sec by washing with running buffer. […] The surface was regenerated by injecting 3 M MgCl2 (for anti-human Fc antibody) or 10 mM Glycine pH 1.5 (for anti-mouse Fc antibody) for 60 sec at a flow rate of 5 μl/min. Bulk refractive index differences were corrected by subtracting the response obtained from a mock surface. Blank injections were subtracted (double referencing). The derived curves were fitted to a 1:1 Langmuir binding model using the BIAevaluation software.

[15] = target: T5, cynomolgus IL-1beta (cynomolgus, UniProt P79182 117-268); assay: as above
Procedure: as §1

[16] = target: T4, human IL-1beta; assay: SPR inhibition; 10 nM human IL-1beta pre-incubated with antibody, injected over immobilised human IL-1RI (competitor)
Procedure: All experiments were performed at 25° C. using HBS-P (10 mM His, 140 mM NaCl, 0.05% Tween 20 pH 7.4) as running and dilution buffer. Human IL-1RI was immobilized on a Series S CM5 Sensor Chip (GE Healthcare) using standard amine coupling chemistry. […] The surface was regenerated by injecting 10 mM NaOH for 60 sec at a flow rate of 5 μl/min. Bulk refractive index differences were corrected by subtracting the response obtained from a mock surface.

[17] = target: T4, human IL-1beta; assay: SPR (BIAcore T200); antibody captured by anti-human Fc, human IL-1beta injected (Example 52); parameters: t 1/2: unit not given here
[18] = target: T4, human IL-1beta; assay: SPR (BIAcore); Fab captured by anti-human Fab, IL-1beta injected (Example 55)
Procedure: All experiments were performed at 25° C. using HBS-P (10 mM His, 140 mM NaCl, 0.05% Tween 20 pH 7.4) as running and dilution buffer. Anti-human Fc or anti-human Fab antibodies were immobilized on a Series S CM5 Sensor Chip (GE Healthcare) using standard amine coupling chemistry. […] The dissociation phase was monitored for 600 sec by washing with running buffer. The surface was regenerated by injecting 3 M MgCl2 (for anti-human Fc antibody) or 10 mM Glycine pH 1.5 (for anti-mouse Fc antibody) for 60 sec at a flow rate of 5 μl/min. Bulk refractive index differences were corrected by subtracting the response obtained from a mock surface. Blank injections were subtracted (double referencing). The derived curves were fitted to a 1:1 Langmuir binding model using the BIAevaluation software.

[19] = target: T4, human IL-1beta; assay: SPR (BIAcore); antibody captured by anti-Fc, IL-1beta injected; remark: listed apart in the source
[20] = target: T5, cynomolgus IL-1beta; assay: as above; remark: listed apart in the source

T1 sequence (P01127 82-190 limits assumed): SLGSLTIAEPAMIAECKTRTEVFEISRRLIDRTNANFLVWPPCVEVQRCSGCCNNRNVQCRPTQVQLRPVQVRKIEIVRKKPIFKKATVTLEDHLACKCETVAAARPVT

B1: antibody 0107 (Fab, V domains shown)
VH: EVQLVESGGGLVQPGGSLRLSCAASGFTFSSYWMSWVRQAPEKGLEWVSTISDGGGLTYYADSVKGRFTISRDNAKNSLYLQMNSLRAEDTAVYYCAESGGYTDWLFGYWGQGTLVTVSS
VL: not shown
B1 showed a T½ [1] of 31.9 min, a Kd [2] of 2 nM and a Kd [3] of 2 nM. It also gave a koff [3] of 0.000362 s⁻¹, a kon [3] of 195000 M⁻¹ s⁻¹ and a t½ [3] of 31.9 min.

B2: antibody 0085 FAB (Fab, V domains shown)
VH: B1 VH
VL: not shown
B2 was tested, and the “IC50 Proliferation human pericytes” value [4] was 0.012 nM and the “IC50 Migration-Inhibition human pericytes” value [5] was 0.27 nM.

B3: antibody 0106 (Fab, V domains shown)
VH: B1 VH
VL: not shown
Work on B3 yielded a T½ [1] of 30.9 min, a Kd [2] of 2 nM and a Kd [3] of 2 nM. The koff [3] was 0.000374 s⁻¹, the kon [3] was 202000 M⁻¹ s⁻¹ and the t½ [3] was 30.9 min. For the same binder, the Kd [6] was 1 nM, the koff [6] was 0.000291 s⁻¹ and the kon [6] was 294000 M⁻¹ s⁻¹. For the same binder, the t½ [6] was 40.

B4: antibody 0144 (bispecific antibody, human IgG1, kappa, L234A L235A)
chain 1: SYVLTQPPSVSVAPGQTARITCGGNNIGSKSVHWYQQKPGQAPVLVVYDTSDRPSGIPERFSGSNSGNTATLTISRVEAGDEADYYCQVWDSSSDHWVFGGGTKLTVLSSASTKGPSVFPLAPSSKSTSGGTAALGCLVKDYFPEPVTVSWNSGALTSGVHTFPAVLQSSGLYSLSSVVTVPSSSLGTQTYICNVNHKPSNTKVDKKVEPKSCDKTHTCPPCPAPEAAGGPSVFLFPPKPKDTLMASRTPEVTCVVVDVSHEDPEVKFNWYVDGVEVHNAKTKPREEQYNSTYRVVSVLTVLAQDWLNGKEYKCKVSNKALGAPIEKTISKAKGQPREPQVYTLPPCRDELTKNQVSLWCLVKGFYPSDIAVEWESNGQPENNYKTTPPVLDSDGSFFLYSKLTVDKSRWQQGNVFSCSVMHEALHNAYTQKSLSLSPGK
chain 2: not shown
chain 3: not shown
chain 4: not shown
notes: also called anti-PDGF-B/ANG2 antibody; clone 0144-0004
With B4 the “ANG2 specific pTie2-ELISA, activity against the anti-ANG2/VEGF antibody reported in WO 2014/09465” value [7] was 6 fold, the “IC50 Proliferation 3T3” value [4] was 0.02 nM and the “IC50 Proliferation human pericytes” value [4] was 0.03 nM. For the same binder, the “IC50 Migration-Inhibition human pericytes” value [5] was 0.06 nM, the “IC50 Phospho-Inhibition human pericytes” value [5] was 0.055 nM and the Kd [8] was 17 nM. It also gave a koff [8] of 0.00155 s⁻¹, a kon [8] of 90600 M⁻¹ s⁻¹ and a t½ [8] of 7.43 min. It also gave a Kd [6] of 3 nM, a koff [6] of 0.000215 s⁻¹ and a kon [6] of 83100 M⁻¹ s⁻¹. It also gave a t½ [6] of 53.

B5: Canakinumab (antibody, V domains shown)
VH: QVQLVESGGGVVQPGRSLRLSCAASGFTFSVYGMNWVRQAPGKGLEWVAIIWYDGDNQYYADSVKGRFTISRDNSKNTLYLQMNGLRAEDTAVYYCARDLRTGPFDYWGQGTLVTVSS
VL: EIVLTQSPDFQSVTPKEKVTITCRASQSIGSSLHWYQQKPDQSPKLLIKYASQSFSGVPSRFSGSGSGTDFTLTINSLEAEDAAAYYCHQSSSLPFTFGPGTKVDIKR
With B5 the “IC50, inhibition of ICAM-1 expression upon IL-1beta stimulation of A549 cells” value (“IC50, inhibition … of A549 cells” below) [9] was 0.31 nM, the “IC50, inhibition of ICAM-1 expression upon IL-1beta stimulation of HUVEC cells” value [10] was 9.02 nM and the “EC50, reduction of IL-6 expression upon IL-1beta stimulation of A549 cells” value (“EC50, reduction” below) [11] was 0.12 nM. The “IC50, inhibition of proliferation of D10 cells” value [12] was 1.99 nM, the “EC50, reduction” value [13] was 0.0864 µg/mL and the Kd [14] was 0.02 nM. It also gave a koff [14] of 5.2e-05 s⁻¹, a kon [14] of 2.78e+06 M⁻¹ s⁻¹ and a Kd [15] of 13.2 nM. It also gave a koff [15] of 0.0284 s⁻¹, a kon [15] of 2.15e+06 M⁻¹ s⁻¹ and an IC50 [16] of 1.6 nM.

B6: huH34-2 (antibody, V domains shown)
VH: QVQLVQSGAEVKKPGASVKVSCKASGYTFTGYYMHWVRQAPGQGLEWIGYISSYNAFTTYNQKFRGRATFTVDTSISTAYMELSRLRSDDTAVYYCVRSDYYGTSLYWGQGTLVTVSS
VL: EIVLTQSPATLSLSPGERATLSCRASSSVSYMHWSQQKPGQAPRLLIYSTSNLASGIPARFSGSGSGTDFTLTISSLEPEDFAVYYCHQWSNYYTFGQGTKLEIK
notes: Humanized antibody expressed in HEK cells; also called huH34-2 bivalent; humanized version of H34
B6 was tested, and the “IC50, inhibition … of A549 cells” value [9] was 0.23 nM, the “IC50, inhibition of ICAM-1 expression upon IL-1beta stimulation of HUVEC cells” value [10] was 0.3 nM and the “EC50, reduction” value [11] was 0.11 nM. The “IC50, inhibition of proliferation of D10 cells” value [12] was 0.83 nM, the Kd [14] was 0.06 nM and the koff [14] was 0.00011 s⁻¹. For the same binder, the kon [14] was 1.93e+06 M⁻¹ s⁻¹, the Kd [15] was 0.05 nM and the koff [15] was 0.000118 s⁻¹. For the same binder, the kon [15] was 2.2e+06 M⁻¹ s⁻¹, the Kd [17] was 0.05 nM and the koff [17] was 0.000115 s⁻¹. For the same binder, the kon [17] was 2.43e+06 M⁻¹ s⁻¹ and the “t 1/2” value [17] was 101.

B7: antibody 0032 (bispecific antibody, V domains shown)
VH 1: EVQLVESGGGLVQPGGSLRLSCAASGYDFTHYGMNWVRQAPGKGLEWVGWINTYTGEPTYAADFKRRFTFSLDTSKSTAYLQMNSLRAEDTAVYYCAKYPYYYGTSHWYFDVWGQGTLVTVSS
VL 1: DIQLTQSPSSLSASVGDRVTITCSASQDISNYLNWYQQKPGKAPKVLIYFTSSLHSGVPSRFSGSGSGTDFTLTISSLQPEDFATYYCQQYSTVPWTFGQGTKVEIK
VH 2: B6 VH
VL 2: B6 VL
notes: CrossMab; only variable domains are tied to it; also called anti-IL-1beta/VEGF antibody
In the case of B7, the “EC50, reduction” value [13] is reported as 0.0387 µg/mL, the Kd [17] is reported as 0.12 nM and the koff [17] is reported as 0.000305 s⁻¹. The kon [17] was 2.49e+06 M⁻¹ s⁻¹ and the “t 1/2” value [17] was 38.

B8: huH34-3 (antibody, V domains shown)
VH: B6 VH with N55S
VL: B6 VL
notes: VH = 11 and VL = 16 read by analogy with huH34-2
B8 was tested, and the “IC50, inhibition … of A549 cells” value [9] was 2.23 nM, the “EC50, reduction” value [11] was 1.09 nM and the Kd [14] was 0.15 nM. For the same binder, the koff [14] was 0.000302 s⁻¹, the kon [14] was 1.97e+06 M⁻¹ s⁻¹ and the Kd [15] was 0.22 nM. It also gave a koff [15] of 0.000491 s⁻¹ and a kon [15] of 2.21e+06 M⁻¹ s⁻¹.

B9: huH34-2 Fab (Fab, V domains shown)
VH: B6 VH
VL: B6 VL
notes: also called huH34-2 Fab-fragment
In the case of B9, the Kd [18] is reported as 0.06 nM, the koff [18] is reported as 0.000111 s⁻¹ and the kon [18] is reported as 1.81e+06 M⁻¹ s⁻¹.

B10: huH34-1 (antibody, V domains shown)
VH: B6 VH with I48M, N55S, A56G, N61A, R65Q, A68V, F70M, V72R, V97A
VL: B6 VL
notes: VH = 01 and VL = 16 read by analogy with huH34-2 (VH 06, VL 16); Humanized
B10 was tested, and the “IC50, inhibition … of A549 cells” value [9] was > 7 nM, the “EC50, reduction” value [11] was 5.52 nM and the Kd [14] was 1.02 nM. For the same binder, the koff [14] was 0.00151 s⁻¹, the kon [14] was 1.49e+06 M⁻¹ s⁻¹ and the Kd [15] was 1.31 nM. It also gave a koff [15] of 0.00212 s⁻¹ and a kon [15] of 1.61e+06 M⁻¹ s⁻¹.

B11: H34 + C52aS mutations (antibody, V domains shown)
VH: EVQLQQSGPELVKTGASVKISCKASGYSFTGYYMHWVKQSHGKSLEWIGYISSYNAFTTYNQRFRGKATFTVDTSSSTAYMQFNSLTSEDSAVYYCVRSDYYGTSLYWGQGTTLTVSS
VL: QIVLTQSPAIMSASLGEEITLTCSASSSVSYMHWSQQKSGSSPKLLIYSTSNLASGVPSRFSGSGSGTFYSLTISSVEAEDAADYYCHQWSNYYTFGGGTKLEIK
B11 was tested, and the Kd [19] was 0.4 nM, the koff [19] was 0.000645 s⁻¹ and the kon [19] was 1.6e+06 M⁻¹ s⁻¹. For the same binder, the Kd [20] was 0.51 nM, the koff [20] was 0.000728 s⁻¹ and the kon [20] was 1.43e+06 M⁻¹ s⁻¹. It also gave a Kd [14] of 0.4 nM, a koff [14] of 0.000645 s⁻¹ and a kon [14] of 1.6e+06 M⁻¹ s⁻¹. For the same binder, the Kd [15] was 0.51 nM, the koff [15] was 0.000728 s⁻¹ and the kon [15] was 1.43e+06 M⁻¹ s⁻¹.
